By EC50 is commonly meant the concentration at which the effect is half-maximal.

The target in this experiment is SARS-CoV-2 prefusion-stabilized trimeric spike ectodomain (S2Pecto) (SARS-CoV-2) (UniProt P0DTC2). As to the kind of experiment: ELISA on coated antigen. (An ELISA detects its analyte on a solid surface through an enzyme-linked reagent.)

In the case of “rCR3022 (recombinant form of the cross-reactive SARS-CoV SRBD mAb CR3022) (antibody)”, the EC50 was determined as 0.0102 µg/mL.

(Values after patent US20210300999A1.)
